In US20240301385, “DNA MODIFYING ENZYMES AND ACTIVE FRAGMENTS AND VARIANTS THEREOF AND METHODS OF USE” (LIFEEDIT THERAPEUTICS, INC., published 2024):

T1: APG30130-L32-nAPG07433.1 (synthetic)
T1 chain: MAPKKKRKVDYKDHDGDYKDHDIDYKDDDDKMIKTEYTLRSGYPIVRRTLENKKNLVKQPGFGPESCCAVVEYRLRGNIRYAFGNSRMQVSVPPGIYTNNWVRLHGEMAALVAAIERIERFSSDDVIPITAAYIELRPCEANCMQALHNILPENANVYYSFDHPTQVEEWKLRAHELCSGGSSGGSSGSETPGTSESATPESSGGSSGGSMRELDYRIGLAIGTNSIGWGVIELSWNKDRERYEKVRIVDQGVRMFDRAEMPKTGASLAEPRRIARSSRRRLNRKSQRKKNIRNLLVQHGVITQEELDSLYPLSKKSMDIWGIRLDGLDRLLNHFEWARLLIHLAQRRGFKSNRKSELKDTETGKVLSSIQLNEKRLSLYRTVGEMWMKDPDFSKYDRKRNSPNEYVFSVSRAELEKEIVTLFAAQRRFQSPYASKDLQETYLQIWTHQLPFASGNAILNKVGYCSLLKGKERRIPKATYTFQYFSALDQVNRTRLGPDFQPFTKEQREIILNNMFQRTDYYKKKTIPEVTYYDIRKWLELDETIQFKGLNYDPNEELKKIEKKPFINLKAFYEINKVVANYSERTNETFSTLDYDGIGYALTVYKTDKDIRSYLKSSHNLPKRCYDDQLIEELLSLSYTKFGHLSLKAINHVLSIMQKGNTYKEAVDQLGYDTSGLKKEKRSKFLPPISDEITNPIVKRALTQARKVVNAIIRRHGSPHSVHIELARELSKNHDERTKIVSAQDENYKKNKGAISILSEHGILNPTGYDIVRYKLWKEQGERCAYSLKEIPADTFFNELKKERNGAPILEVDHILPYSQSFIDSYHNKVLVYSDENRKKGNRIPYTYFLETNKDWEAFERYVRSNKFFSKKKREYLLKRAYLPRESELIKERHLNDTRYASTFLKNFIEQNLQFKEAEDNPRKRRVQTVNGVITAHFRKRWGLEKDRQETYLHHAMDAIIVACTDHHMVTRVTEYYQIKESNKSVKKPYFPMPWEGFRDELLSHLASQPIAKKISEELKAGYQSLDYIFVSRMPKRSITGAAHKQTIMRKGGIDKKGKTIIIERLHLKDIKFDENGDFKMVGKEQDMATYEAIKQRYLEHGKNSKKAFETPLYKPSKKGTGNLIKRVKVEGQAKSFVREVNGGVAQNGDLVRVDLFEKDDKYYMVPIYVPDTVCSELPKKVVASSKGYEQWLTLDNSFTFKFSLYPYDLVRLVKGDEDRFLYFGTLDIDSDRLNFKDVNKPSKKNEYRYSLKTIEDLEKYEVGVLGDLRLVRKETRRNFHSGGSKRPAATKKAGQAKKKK

B1: SGN000194 sgRNA ; SGN000194 target (ssRNA ; dsDNA)
RNA: GCCGCACAGCAUUCAGGUCGGUCAUAGUUCCAUUAAAGCCAAAAGUGGCUUUGAUGUUUCUAUGAUAAGGGUUUCGACCCGUGGCGUCGGGGAUCGCCUGCCCAUUGAAAUGGGCUUCUCCCCAUUUAUU
DNA 1: GCCGCACAGCATTCAGGTCG
DNA 2: CGACCTGAATGCTGTGCGGC
B2: SGN000930 sgRNA ; SGN000930 target (ssRNA ; dsDNA)
RNA: GAACAACUCAAAUGGAAAUGAAUAUGUCAUAGUUCCAUGAAAGCCAAAAGUGGCUUUGAUGUUUCUAUGAUAAGGGUUUCGGCCCGUGGCGUCGGGGAUCGCCUGCCCAUUCCGAUGGGCUUCUCCCCAUUUAUU
DNA 1: GAACAACTCAAATGGAAATGAATAT
DNA 2: ATATTCATTTCCATTTGAGTTGTTC

Target: T1, APG30130-L32-nAPG07433.1
Assay: cell_activity; HEK293FT; PAM SEQ 152
Settings: tags: SV40 NLS, 3xFLAG N-term; nucleoplasmin NLS C-term
How it was run: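 Editing read out by next-generation sequencing (MiSeq 2×250) of PCR amplicons spanning the target site, analysed for INDELs or % cytosine conversion per position (position 1 nearest PAM).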

Binder	activity [% mutated reads]
B1	3.29
B2	3.14
